Patent publication US12209142B2, “SARS-CoV-2 epitope-targeted peptide immunostimulants” (Institute for Systems Biology, priority 2020, dated 2025)
“Also recorded” adds a separate entry of the source. Bridges are numbered along the chain shown (N, C = ends). Where no end group is shown, it is not given here. [ ]: non-standard residue; d: D form. Lys(N3) = [N-]=[N+]=NCCCC[C@H](N)C(=O)O; Pra = C#CC[C@H](N)C(=O)O

Legend:
[1] = target: T1, full-length recombinant MrkA protein (Klebsiella pneumoniae, UniProt P12267); assay: Sandwich ELISA of PCC binding to full-length MrkA; settings: for binding / affinity to full-length MrkA protein (ELISA signal): compared with cy(LLFFF); for affinities to MrkA (likely): ELISA, full-length recombinant MrkA
T1 construct: purchased MyBiosource MBS1248970
Description: The screen yielded 26 hits (Table 2) that were sequenced, scaled up, and tested for binding to full-length recombinant MrkA in solution by single-point sandwich Enzyme-linked immunoassays (ELISAs) (FIG. 8). HPraGly is present before X1 in each peptide and Az4 follows X5 in each peptide.
An alanine scan was performed to establish which residues of cy(LLFFF) (SEQ ID NO:5) contribute most to MrkA binding. In this assay, a sandwich ELISA is used to quantify the affinity of several cy(LLFFF) (SEQ ID NO:5) analogues, in which one residue is substituted with an alanine, towards full-length MrkA protein. The ELISA results in FIG. 4 show lower signal for every alanine-substituted cy(LLFFF) (SEQ ID NO:5) analogue compared to unmodified cy(LLFFF) (SEQ ID NO:5), establishing that the native compound has the highest affinity. […] Thus, these two C-terminal phenylalanine residues (FIG. 3A, arrows in inset) play critical roles in MrkA binding, and are targets for modifications to improve binding. Another important detail of these alanine scan results is a strong dependence of MrkA binding on the residue position, independent of residue type. For example, cy(LLAFF) (SEQ ID NO:9) and cy(LLFFA) (SEQ ID NO:11) have very different binding affinities, despite having the same phenylalanine-to-alanine substitution.
In vitro ELISA assays. ELISA assays for MrkA-binding and epitope selectivity were performed on clear NeutrAvidin Coated High Capacity Plates (ThermoFisher, 15507). The buffer used for all washes and to dissolve all compounds was TBST+0.1% BSA (TBS+0.05% Tween 20+0.1% BSA, pH 7.3) and, unless otherwise stated, steps were conducted at room temperature. Each wash involved a brief 20 s agitation, and all conjugation, blocking, and incubation steps were performed with gentle agitation over the entire stated time period. The general procedure for an ELISA assay was: wash 3×200 μL/well, conjugate with 2 μM of biotinylated compound for 2 h at room temperature (100 μL/well), wash 3×200 μL/well, blocked overnight in 5 wt % milk at 4° C., wash […] with wash buffer, incubate with titrated compound (e.g., MrkA or epitope) for 1 h, […], incubate with primary antibody […] for 1 h (100 μL/well), wash 3×200 μL/well, incubate with 1:2,000 anti-rabbit secondary antibody-horseradish peroxidase conjugate (Cell signaling Technologies, 7074S) for 1 h, 3×200 μL/well, develop with the Microwell Peroxidase Substrate System (2-C) (SeraCare, 5120-0047) using 100 μL/well for 1-40 minutes, and quench using 1 M H2SO4 (aq.) at 100 μL/well. For MrkA binding assays, biotinylated PCCs were conjugated to the well surface, recombinant MrkA with an N-terminal 6×His-SUMO-tag (MyBiosource, MBS1248970) was titrated at the desired concentration, and the primary antibody was His-tag antibody, pAb, Rabbit (Genscript, A00174) at a 1:5,000 dilution. For epitope selectivity assays, biotinylated SynEps were conjugated, DNP-conjugated AR-PCCs were titrated at a desired concentration, and the primary antibody was anti-DNP antibody produced in Rabbit (Sigma-Aldrich, D9656) at a 1:8,000 dilution. […] For binding tests in the context of mouse sera, the “titrated compound” described in the steps above was dispersed in a solution containing the desired concentration of mouse serum.

[2] = Isocratic point of PCCs (C18 prep-scale column elution); format: physicochemical
Excerpt: The efficacy of AR-PCCs in vivo will not only depend on target binding, but also pharmacokinetic (PK) properties, of which clearance pathway is an important parameter. […] Modifications include single- and double-residue substitutions, residue removal, and the addition of non-ionic PEG and charged poly-arginine tags (Ri, where i represents the number of arginine). Results of this optimization are shown in FIG. 4B, which plots IP versus the affinity of the compound to MrkA, relative to cy(LLFFF) (SEQ ID NO:5).
PCC compounds were purified on a Waters Autopurification system, which isolated compounds based on MS peaks corresponding to protonated [M+1H]^+ and [M+2H]^2+, and/or sodium adducts [M+Na]^+ and [M+2Na]^2+. The isocratic points of PCCs were determined based on the elution of the compound from a C18 prep-scale column. Synthetic epitopes were either purified on the Waters Autopurification System, or by semi-preparative HPLC and then using matrix-assisted laser desorption/ionization mass spectroscopy to identify fractions with the desired m/z ratio. The resulting peptides were lyophilized, the yield determined by mass difference or UV-visible absorbance, and resuspended at a concentration of up to 10 mM peptide in DMSO. Peptides were stored at −80° C. before thawing for each use.

[3] = system: K. pneumoniae cells (strain BAA 1705); assay: Gentamicin protection assay: phagocytosis and opsonophagocytic killing (OPK) by macrophages; format: cell-based, Klebsiella pneumoniae; settings: AR-PCC 5 μM, 1 h
Description: FIGS. 7A and 7B show a gentamicin protection assay that evaluates EPI-driven phagocytosis and opsonophagocytic killing (OPK) of K. pneumoniae cells by murine bone-marrow-derived macrophages. FIG. 7A is a flow diagram depicting the assay used to evaluate EPI-driven opsonophagocytic killing (OPK) of K. pneumoniae cells. Briefly, K. pneumoniae cells (strain BAA 1705) opsonized by EPIs (AR-PCCs) and anti-DNP antibodies were incubated with macrophages for 1 or 24 h. Macrophages were lysed, and the lysate was plated to obtain bacterial colonies that were subsequently counted. FIG. 7B is a plot of colony counts for various samples subjected to the OPK assay. […] All EPIs (AR-PCCs) were used at a 5 μM concentration, measurements were conducted in triplicate, and error bars reflect standard deviations. cy(LLFFA) is SEQ ID NO:11.
It also tested whether DNP-conjugated EPIs could promote the opsonophagocytic killing (OPK) of K. pneumoniae by macrophages. This was tested by using an OPK assay. Briefly, K. pneumoniae cells were treated with EPI and then anti-DNP antibody before being exposed to macrophages for either 6 or 24 hours. During this incubation period, macrophages that recognize K. pneumoniae cells will phagocytose them, and phagocytosed bacteria will remain viable for up to 6 hours, but within 24 hours are rendered inviable by OPK. Thus, macrophages were isolated after 6 and 24 hours of incubation with K. pneumoniae, lysed them, and plated and grew the lysate, which yielded bacterial colonies that reflect the phagocytosis (at 6 hrs) or OPK (at 24 hrs) of bacteria.
Given that cy(LLFFF)-DNP (SEQ ID NO:5) recruits antibodies to K. pneumoniae surfaces, it was expected that K. pneumoniae opsonized in this manner would be more susceptible to phagocytosis by macrophages. AR-PCC-driven phagocytosis and OPK were quantified by a gentamicin protection assay, as depicted in FIG. 7A. For this assay, K. pneumoniae cells (strain BAA 1705) were treated with cy(LLFFF)-DNP (SEQ ID NO:5), opsonized by anti-DNP antibodies, and then incubated with murine bone-marrow-derived macrophages (BMDMs). BMDMs were subsequently exposed to a solution containing gentamicin, to which K. pneumoniae strain BAA 1705 is susceptible, to kill any extracellular bacteria. Phagocytosed bacteria remain viable inside BMDMs for at least 1 h, yet are rendered inviable after 24 h by OPK (FIG. 13). Macrophages harvested at 1 h and 24 h were lysed and plated to generate bacterial colonies, which were enumerated to quantify phagocytosis and OPK.
Opsonophagocytic killing (OPK) assays. Klebsiella pneumoniae BAA1705 was treated with DNP-PCCs followed by incubation with anti-DNP antibody, as described above in the “Cell-Based ELISAs” section. These opsonized bacteria were then used to infect BMDMs at a multiplicity of infection of 50 for 0.5 h at 37° C. Bacteria were then washed by using RPMI 1640 Media and BMDMs were left in cell culture medium containing gentamicin (100 μg/ml). After 1 h and 24 h BMDMs were washed to remove gentamicin and intracellular bacteria were harvested by lysing BMDMs in RPMI media containing 0.2% Triton X 100. Bacterial CFUs were enumerated by plating onto LB agar. Bacterial counts at 1 h indicated the degree of opsonization while those at 24 h served as a measure of microbicidal activity of macrophages. For these measurements, anti-MrkA antibody and K. pneumoniae antiserum were used at dilutions of 5 μg/mL each.

[4] = system: MrkA-expressing K. pneumoniae cells; assay: Whole-cell ELISA of biotinylated PCC binding
[5] = strain BAA 1705, PCC 5 μM or lower

T1 sequence (P12267 23-202): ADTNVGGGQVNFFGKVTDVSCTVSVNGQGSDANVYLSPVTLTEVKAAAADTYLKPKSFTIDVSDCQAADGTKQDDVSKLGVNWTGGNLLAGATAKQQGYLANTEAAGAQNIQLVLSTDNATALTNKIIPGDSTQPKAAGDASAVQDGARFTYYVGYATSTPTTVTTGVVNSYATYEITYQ

## Ref. compound (LLFFF; not fully specified (bridges); printed as cy(LLFFF); also: cyclised (cy), ring-closing ends (Pra and azidolysine) not shown in this chain)
[1]; ELISA 1, [MrkA] for ELISA N/A
  Relative affinity (ratio of ELISA signal versus cy(LLFFF)): 1.00
[1]; [MrkA] for ELISA 25 nM (ELISA 2, 5, 6)
  Relative affinity (ratio of ELISA signal versus cy(LLFFF)): 1.00
[1]; [MrkA] for ELISA 50 nM (ELISA 3)
  Relative affinity (ratio of ELISA signal versus cy(LLFFF)): 1.00
[1]; [MrkA] for ELISA 100 nM (ELISA 4)
  Relative affinity (ratio of ELISA signal versus cy(LLFFF)): 1.00
[2]; N-terminal tag Bio-Peg10-peg10-
  Isocratic point (%): 74.53%
[2]; N-terminal tag Bio-peg5-
  Isocratic point (%): 78.85%
[2]; N-terminal tag Bio-peg10-
  Isocratic point (%): 75.88%

## cy(ALFFF): alanine-substituted cy(LLFFF) analogue ([Lys(N3)]ALFFFX; triazole 1-7; not fully specified (residue 7); printed as cy(ALFFF))
[1]
  binding / affinity to full-length MrkA protein (ELISA signal): Modestly lower binding

## cy(GVHRL): additional MrkA ligand with lower affinity (XGVHRL[Lys(N3)]; triazole 1-7; not fully specified (residue 1); printed as cy(GVHRL))
[1]
  affinities to MrkA (likely): ~1 µM
  binding / affinity to full-length MrkA protein (ELISA signal): lower affinities to MrkA

## cy(LAFFF): alanine-substituted cy(LLFFF) analogue ([Lys(N3)]LAFFFX; triazole 1-7; not fully specified (residue 7); printed as cy(LAFFF))
[1]
  binding / affinity to full-length MrkA protein (ELISA signal): Modestly lower binding

## cy(LLAFF): alanine-substituted cy(LLFFF) analogue ([Lys(N3)]LLAFFX; triazole 1-7; not fully specified (residue 7); printed as cy(LLAFF))
[1]
  binding / affinity to full-length MrkA protein (ELISA signal): Modestly lower binding

## cy(LLFFA)-DNP: DNP-conjugated control cy(LLFFA) ([Lys(N3)]LLFFAX; triazole 1-7; not fully specified (residue 7); printed as cy(LLFFA); also: DNP label)
[3]
  phagocytosis / OPK activity at 1 h, AR-PCC plus anti-DNP: None of these treatments elicited phagocytosis above basal levels
  phagocytosis at 1 h, AR-PCC only (no anti-DNP): None of these treatments elicited phagocytosis above basal levels

## cy(LLFFA): control compound differing from cy(LLFFF) by a single phenyl moiety ([Lys(N3)]LLFFA[Pra]; triazole 1-7)
[4]; MrkA/B/C knockout KPPR1
  whole-cell ELISA signal, MrkA-knockout KPPR1: ELISA intensities comparable to baseline
[4]; strain BAA 1705, 50 μM PCC
  whole-cell ELISA signal at high PCC concentration, LB or G-CAA: strong and comparable ELISA signals
[4]; [5]
  whole-cell ELISA 450 nm absorbance, cells cultured in G-CAA (high MrkA): near-baseline absorbances
  whole-cell ELISA 450 nm absorbance, cells cultured in LB (low MrkA): near-baseline absorbances
[4]; wild type KPPR1 (ATCC 43816), G-CAA media, 5 μM down to 5 nM
  whole-cell ELISA signal, wild type KPPR1: much lower intensities; also recorded: Much lower binding

## cy(LLFFF)+R6-DNP: optimized compound cy(LLFFF)+R6 tagged with DNP ([Lys(N3)]LLFFF[Pra]RRRRRR; bridge 1-7; not fully specified (bridges); also: tagged with DNP, position not given here)
[3]
  phagocytosis / OPK activity at 1 h, AR-PCC plus anti-DNP: comparable to that of cy(LLFFF)-DNP
  phagocytosis at 1 h, AR-PCC only (no anti-DNP): None of these treatments elicited phagocytosis above basal levels
[3]; murine BMDMs
  colony counts at 1 h, AR-PCC plus anti-DNP antibody: 85,000 CFU

## cy(TTFFF): additional MrkA ligand with lower affinity ([Lys(N3)]TTFFFX; bridge 1-7; not fully specified (residue 7, bridges); printed as cy(TTFFF))
[1]
  affinities to MrkA (likely): ~1 µM
  binding / affinity to full-length MrkA protein (ELISA signal): lower affinities to MrkA

## cy(YRHLG): additional MrkA ligand with lower affinity (XYRHLG[Lys(N3)]; bridge 1-7; not fully specified (residue 1, bridges); printed as cy(YRHLG))
[1]
  affinities to MrkA (likely): ~1 µM
  binding / affinity to full-length MrkA protein (ELISA signal): lower affinities to MrkA
